Laboratory results: patent publication US20230398228A1, “ERIBULIN-BASED ANTIBODY-DRUG CONJUGATES AND METHODS OF USE” (EISAI R&D MANAGEMENT CO., LTD., priority 2016, published 2023)

Key:
[1] = DAR analysis by LC-MS (UPLC/ESI-MS, reverse-phase LC-MS); conditions: for DAR (LC-MS): reverse-phase LC-MS
Experimental: ADCs were deglycosylated using PNGase F (New England BioLabs). G7 buffer (10 μL) and PNGase F (2 μL) were added to the mAb (90 μL, 1 mg/mL in DPBS). The reaction was incubated in a Discover microwave (CEM) for 2 cycles: (1) microwave power 10 W, 37° C., 10 min, followed by a 5-min pause; (2) microwave power 2 W, 37° C., 10 min. A portion of the sample was reduced by adding DTT to a final concentration of 20 mM, followed by incubation at 60° C. for 3 min. Samples were then analyzed using a Waters Acquity Ultra Performance Liquid Chromatography (UPLC) and quadrupole time of flight (Q-Tof) Premier mass spectrometer. Samples (0.5-2 μg each) were injected onto a MassPrep™ micro desalting column at 65° C., eluted from the column with a 5 min equilibration in 95% of mobile phase A, a 10 min gradient (5-90% B), and a 10 min re-equilibration in 95% of mobile phase A, at 0.05 mL/min. Mobile phase A was 0.1% formic acid in water. Mobile phase B was 0.1% formic acid in acetonitrile. The Q-Tof mass spectrometer was run in positive ion, V-mode with detection in the range of 500-4000 m/z. The source parameters were as follows: capillary voltage, 2.25 kV (intact antibody)-2.50 kV (reduced antibody); sampling cone voltage, 65.0 V (intact antibody) or 50.0 V (reduced antibody); source temperature, 100° C.; desolvation temperature, 250° C.; desolvation gas flow, 550 L/hr. The protein peak was deconvoluted using the MassLynx® MaxEnt 1 function. Relative intensities of each unconjugated, singly-conjugated, and multiply-conjugated heavy and light chain masses were combined to calculate the overall DAR using the formula:
2[[ILC+1+2(ILC+2)+3(ILC+3)+ . . . n(ILC+n)]/ΣILCtot]+2[[IHC+1+2(IHC+2)+3(IHC+3)+ . . . n(IHC+n)]/ΣIHCtot]
where ILC+1 is mass intensity of light chain conjugated with one cytotoxin, ILC+2 is mass intensity of light chain conjugated with two cytotoxins, etc. IHC are the intensities from the corresponding conjugated heavy chains, and ΣILCtot and ΣIHCtot are the combined intensities of all unconjugated and conjugated light chains and heavy chains, respectively.
DAR was also analyzed using an LC-MS method with a Waters Alliance HPLC with SQD/PDA detection. Samples were injected onto a Proteomix RP-1000 column ([…], 1000A, 4.6 mm×15 cm, Sepax) at 65° C., and eluted with a 3 min equilibration in 25% B, a 27 min linear gradient from 25%-55% B, a 5 min hold at 55% B, a 1 min change to 90% B, a 5 min hold at 90% B, a 1 min change back to 25% B, and a 5 min reequilibration at 25% B. Mobile phase A was 0.1% TFA in water, and mobile phase B was 0.1% TFA in acetonitrile. The elute was then split (10:1) into PDA and SQD detectors. The SQD detector was set up as ES positive, capillary voltage at 3.2 kV, cone voltage at 40 V, extractor at 3 V, and RF lens at 0.2 V, source temperature at 150° C., and desolvation temperature at 250° C. Mass data was acquired at 200-2000 m/z for 40 min, continuum mode, scan time 1 second. Data was analyzed and deconvoluted offline using MassLynx and MaxEnt1. DAR was calculated using the formula:
2[[AUCLC+1+2(AUCLC+2)+3(AUCLC+3)+ . . . n(AUCLC+n)]/[…]]+2[[AUCHC+1+2(AUCHC+2)+3(AUCHC+3)+ . . . n(AUCHC+n)]/ΣAUCHCtot]
where AUCLC+1 is the area under the curve of the light chain peak conjugated with one cytotoxin, AUCLC+2 is the area under the curve of the light chain peak conjugated with two cytotoxins, etc. AUCHC is the area under the curve of the corresponding heavy chains, and ΣAUCLCtot and ΣAUCHCtot are the combined area under the curve of all unconjugated and conjugated light chains and heavy chains, respectively.

NCI-H2110 cells = experiment: Crystal Violet cytotoxicity assay (Example 4), NCI-H2110; assay type: cell-based, human; conditions: mean of replicate experiments, read-out: Cytotoxicity IC50 (nM), NCI-H2110 (FR^med, MSLN^med)
Experimental: (§1) Test reagents were serial diluted 1:3 in 2 mL deep-well dilution plates, starting at 200 nM (10 dilutions total). […] Medium was then discarded. […] Plates were read at 570 nm. Data was analyzed using GraphPad Prism 6.

IGROV1 cells = experiment: Crystal Violet cytotoxicity assay (Example 4), IGROV1; assay type: cell-based, human; conditions: mean of replicate experiments, read-out: Cytotoxicity IC50 (nM), IGROV1 (FR^hi, MSLN^neg)
Experimental: as §1

human mesothelin = human mesothelin (Homo sapiens, UniProt Q13421); experiment: ELISA, mesothelin; assay type: binding; conditions: MORAb-009 and its ADCs; for EC50: read-out: Antigen Binding ELISA, EC50
Experimental: Recombinant human mesothelin was diluted to 1 μg/mL in coating buffer (50 mM carbonate-bicarbonate buffer, pH 9.6), and coated onto 96-well Maxisorp black plates (Thermo, Cat No. 43711, 100 μL/well) at 4° C., overnight. Coating solution was discarded and the plates were washed three times using 1×PBS with 0.05% Tween-20 (PBST) buffer. Plates were blocked in 300 μL blocking buffer (1% BSA in PBST) at room temperature for 2 hours on an orbital shaker. […] Blocking buffer was discarded and 100 μL/well of diluted antibody was added to the plates. Plates were incubated at room temperature for 2 hours on an orbital shaker. Antibody solution was discarded and plates were washed three times using PBST. 100 μL/well of goat-anti-human IgG (H+L)-HRP (1:10,000 dilution in blocking buffer) solution was added to the plates, and plates were incubated at room temperature for 1 hour on an orbital shaker. Secondary antibody solution was discarded and plates were washed three times using PBST. 100 μL/well of QuantaBlu fluorogenic peroxidase substrate working solution (Thermo, Cat No. 15169) was added to the plates, and plates were incubated at room temperature for 30 min. Fluorescence was read at excitation 325 nm/emission 420 nm using a SpectraMax M5 (Molecular Devices). Data was analyzed using SoftMaxPro 5.4.2 software with 4-parameter fitting.

A431 cells = experiment: Crystal Violet cytotoxicity assay (Example 4), A431 (parental); assay type: cell-based, human; conditions: mean of replicate experiments, read-out: Cytotoxicity IC50 (nM), A431 (FR^neg, MSLN^neg)
Experimental: Test reagents were serial diluted 1:3 in 2 mL deep-well dilution plates, starting at 200 nM (10 dilutions total). […] Medium was then discarded. […] Plates were read at 570 nm. Data was analyzed using GraphPad Prism 6. […]
MAL-PEG2-Val-Cit-PAB-eribulin (ER-001159569) was conjugated to eight different anti-human mesothelin antibodies (Table 1). Binding affinities of the parental antibodies were determined by BIAcore analysis, as described above in section 1.6.1. Aggregation levels for all anti-human mesothelin ADCs were determined by SEC-HPLC and the DAR was analyzed using HIC-HPLC. In vitro potency was evaluated using a Crystal Violet cell-based cytotoxicity assay in A3 (A431 stabily transfected with human mesothelin (MSLN), MSLN^hi), OVCAR3 (human ovarian, MSLN^hi), HEC-251 (human endometroid, MSLN^med), H226 (human lung squamous cell mesothelioma, MSLN^lo), and A431 parental (MSLN^neg) cells.

[2] = SEC-HPLC aggregation analysis; assay type: physicochemical
Experimental: The antibody aggregation was analyzed by size-exclusion, high-performance liquid chromatography (SEC-HPLC) using an Agilent 1100. The mAb was diluted to 1 mg/mL in DPBS. The antibody (20 μL) was injected onto a TSKgel® SuperSW guard column (4.6 mm×3.5 cm, 4 μm pore size, Tosoh Bioscience), followed by a TSKgel® SuperSW3000 column (4.6 mm×30 cm, 4 μm pore size), eluted from the column with 0.1 M sodium phosphate containing 0.15 M NaCl and 0.05% NaN3, at pH 7.4, at a flow rate of 0.3 mL/min for 20 min. All data were analyzed using Agilent ChemStation software. Percent aggregation was calculated as [PAaggregate/PAtotal]*100, where PA=integrated peak area.
ADC was diluted to 1 mg/mL in DPBS. ADC (10 μL) was then injected onto an Advanced SEC 300A guard column (4.6 mm×3.5 cm, 2.7 μm pore size, Agilent), followed by a AdvancedBio 300A column (4.6 mm×30 cm, 2.7 μm pore size). ADC was eluted from the column with 0.1 M sodium phosphate containing 0.15 M NaCl and 5% IPA, pH 7.4 at a flow rate of 0.25 mL/min for 28 min. All data were analyzed using Agilent ChemStation software. Percent aggregation was calculated as [PAaggregate/PAtotal]*100, where PA=integrated peak area.

[3] = test system: human BM-MSCs co-cultured with MKN-74 cells; experiment: 3D co-culture system (rStomach, zPredicta), MSC differentiation by flow cytometry; assay type: cell-based; conditions: 7 days treatment, MORAb-202 10 nM, MORAb-003 10 nM, eribulin […] and 0.2 nM (Table 41)
Experimental: All mesenchymal stem cell (MSC)-containing 3D co-culture experiments were conducted in zPredicta, using organ-specific 3D extracellular matrix systems such as rStomach™. Bone marrow mesenchymal stem cells (BM-MSCs) in rStomach™ were co-cultured with the Nuc Red Light MKN-74 gastric cancer cell line in quadruplicate in 48-well format for 12 days. […] Prior to culture, BM-MSCs were evaluated for target antigen expression and for markers of MSC differentiation (Table 40) by flow cytometry.
Controls included untreated and vehicle-treated (PBS and DMSO) cultures. MSC differentiation was monitored by light microscopy. Once visible differentiation was observed, samples were harvested for staining and flow cytometry analysis.
Bone marrow mesenchymal stem cells (BM-MSCs) in rStomach™ (zPredicta) were co-cultured with the MKN-74 gastric cancer cell line for 12 days. […] Once visible MSC differentiation was observed by light microscopy, samples were harvested for staining and flow cytometry analysis.

[4] = test system: LXFA-737 NSCLC patient-derived xenograft; experiment: NSCLC PDx model LXFA-737; assay type: in vivo, mouse; conditions: for Tumor Volume / Tumor Growth Inhibition: 5 mg/kg single dose i.v.; for Tumor Growth Inhibition: vehicle = 100
Excerpt: Tumor implantation: NSCLC tumor fragments were obtained from LXFA-737 tumor xenografts serially passaged in nude mice. After removal from donor mice, tumors were cut into fragments (3-4 mm edge length) and placed in phosphate-buffered saline (PBS) containing 10% penicillin/streptomycin. Recipient animals were anesthetized by inhalation of isoflurane and received unilateral or bilateral tumor implants subcutaneously in the flank. Tumor xenografts were implanted with one or two tumors per mouse at a take rate <65%. In the case of a bilateral take, one of these tumors was explanted prior to randomization. Animals and tumor implants were monitored daily until solid tumor growth was detectable in a sufficient number of animals. At randomization, the volume of growing tumors was determined. […] Animals not used for experiments were euthanized.
Body weight was measured prior to dose on each dosing day, and two times per week during the study. At the end of the study, the terminal body weight was measured and recorded.

Molecule | DAR (LC-MS) [1] | IC50 (NCI-H2110 cells) [nM] | IC50 (IGROV1 cells) [nM] | Antigen Binding ELISA, EC50 (human mesothelin) [µg/mL] | EC50 (human mesothelin) [nM] | IC50 (A431 cells) [nM] | SEC-HPLC Analysis % Aggr. [2] [%] | SEC-HPLC Analysis % Frag. [2] [%] | SEC-HPLC Analysis % Monomer [2] [%] | DAR ([1]; MORAb-003 ADCs, DAR by LC-MS) | Aggregation (%) ([2]; MORAb-003 ADCs, SEC-HPLC) | Percentage of live cells, Pericytes ([3]; PBS 14.6%) [%] | Percentage of live cells, Adipocytes ([3]; PBS […]) [%] | Percentage of live cells, MSCs ([3]; PBS […]) [%] | Tumor Volume ([4]; Day 21, n = 6) [mm^3] | Tumor Growth Inhibition ([4]; Day 21, n = 6) | Tumor Volume ([4]; Day 32, n = 6) [mm^3] | Tumor Growth Inhibition ([4]; Day 32, n = 6) | anti-tumor activity, in words ([4]; 5 mg/kg single i.v. dose)
MORAb009-DBCO-PEG4 eribulin | 2.8 | 39.3 | 61.5 | 0.0452 | 0.3 | > 100 | 1.12 | 0 | 98.88 | – | – | – | – | – | – | – | – | – | –
MORAb009 | – | – | – | 0.0426 | 0.28 | – | 0 | 0 | 100 | – | – | – | – | – | – | – | – | – | –
MORAb009-DBCO-PEG4 VCP eribulin | 2.91 | 31.4 | 13 | 0.0337 | 0.22 | > 100 | 0.22 | 0 | 99.78 | – | – | – | – | – | – | – | – | – | –
MORAb009-DBCO-PEG2 eribulin | 3.07 | 85.7 | 75.7 | 0.0233 | 0.16 | > 100 | 1.15 | 0 | 98.85 | – | – | – | – | – | – | – | – | – | –
COc1cc2cc(c1Cl)N(C)C(=O)C[C@H](OC(=O)C(C)N(C)C(=O)CCSC1CC(=O)N(CC3CCC(C(=O)ON4C(=O)CCC4=O)CC3)C1=O)[C@@H]1O[C@H]1[C@H](C)[C@@H]1C[C@@](O)(NC(=O)O1)[C@H](OC)/C=C/C=C(\C)C2 (stereo partly drawn) [M-DM1] | – | – | – | – | – | – | – | – | – | 3.6 | 1.8 | – | – | – | – | – | – | – | –
MORAb-003: humanized anti-human folate receptor alpha antibody (USAN name: farletuzumab) | – | – | – | – | – | – | – | – | – | – | – | 24.0 | 0.69 | 37.1 | 860.7 | (85.7) % | 1572.1 | (100.7) % | did not demonstrate significant anti-tumor activity
